Assay results as given in article PMC10319729.

Assays:
[1] = molecular target: LGR5ΔCT (human LGR5 without the cytoplasmic C-terminal tail) on HEK293 cells (human) (UniProt O75473); test: whole-cell binding, fluorescence plate reader; His-tagged ligand in 3x serial dilution on cells in 96-well plates, on ice 1 h, washed, fixed with 4.2% paraformaldehyde, Alexa488-labeled anti-His antibody; half-maximum binding (KD) from a three-parameter dose-response fit
[2] = molecular target: LGR4 (HA-LGR4) over-expressed on HEK293 cells (UniProt Q9BXB1); test: whole-cell binding, fluorescence plate reader; Fc-tagged ligand in 3x serial dilution on cells in 96-well plates, on ice 1 h, washed, fixed with 4.2% paraformaldehyde, Alexa555-labeled anti-human IgG antibody; half-maximum binding (KD) from a three-parameter dose-response fit
[3] = molecular target: LGR5ΔCT (human LGR5 without the cytoplasmic C-terminal tail) on HEK293 cells (human) (UniProt O75473); test: as above
[4] = molecular target: RNF43-ECDTM (RNF43 extracellular domain anchored by its transmembrane domain) on HEK293T cells (UniProt Q68DV7); test: as above
Chain of RNF43-ECDTM (RNF43 extracellular domain anchored by its transmembrane domain) on HEK293T cells (Q68DV7 24-218): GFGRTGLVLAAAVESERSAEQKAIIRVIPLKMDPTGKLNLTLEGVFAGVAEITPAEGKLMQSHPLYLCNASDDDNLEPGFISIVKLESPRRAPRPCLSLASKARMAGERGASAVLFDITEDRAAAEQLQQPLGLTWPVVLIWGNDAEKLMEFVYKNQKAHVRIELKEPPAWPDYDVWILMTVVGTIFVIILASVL

[5] = molecular target: ZNRF3ΔRING (ZNRF3 with deletion of the RING domain) on HEK293T cells (UniProt Q9ULT6); test: as above

“RSPO2 furin domain with a C-terminal His tag (R2Fu-His) (from UniProt Q6UXX9 37-143) (domain or fragment)” gave a Kd [1] of 1.9 nM.
Work on “R2Fu-bFc (RSPO2 furin domain fused to wild-type IgG1-Fc, bivalent) (from UniProt Q6UXX9 37-143) (Fc fusion)” yielded a Kd [2] of 1.6 nM and a Kd [3] of 0.8 nM.
Substance “R2Fu-Q70R-mFc (monovalent RSPO2 furin domain with Gln70 to Arg) (from UniProt Q6UXX9 22-243) (Fc fusion)” has a Kd [4] greater than 100 nM and a Kd [5] greater than 100 nM.
Substance “R2Fu-mFc (RSPO2 furin domain fused to monomeric human IgG4-Fc, monovalent) (from UniProt Q6UXX9 37-143) (Fc fusion)” has a Kd [2] greater than 50 nM and a Kd [3] of 1.4 nM.
In the case of “R2FuTSP-His (RSPO2 furin domain with TSP domain, His-tagged) (from UniProt Q6UXX9 22-205) (domain or fragment)”, the Kd [1] is reported as 2.6 nM.
Work on “R2Fu-Q70R-bFc (bivalent RSPO2 furin domain with Gln70 to Arg) (from UniProt Q6UXX9 22-243) (Fc fusion)” yielded a Kd [4] of 6.3 nM and a Kd [5] of 2.9 nM.
